This is an account of results in ChEMBL document CHEMBL1649220, “New variant of CTX-M-type extended-spectrum beta-lactamases, CTX-M-71, with a Gly238Cys substitution in a Klebsiella pneumoniae isolate from Bulgaria” (2009).

Substrate in data set [1]: CC(C)(O/N=C(\C(=O)N[C@@H]1C(=O)N2C(C(=O)[O-])=C(C[n+]3ccccc3)CS[C@H]12)c1csc(N)n1)C(=O)O
Put plainly: (§1) Activity of Klebsiella pneumoniae AH27 CTX-M-15 beta-lactamase.

Substrate in data set [2]: CC1(C)S[C@@H]2[C@H](NC(=O)Cc3ccccc3)C(=O)N2[C@H]1C(=O)O
The description is as §1.

Substrate in data set [3]: CO/N=C(\C(=O)N[C@@H]1C(=O)N2C(C(=O)O)=C(COC(C)=O)CS[C@H]12)c1csc(N)n1
The data set is described as §1.

Substrate in data set [4]: CO/N=C(\C(=O)N[C@@H]1C(=O)N2C(C(=O)O)=C(COC(N)=O)CS[C@H]12)c1ccco1
Described as §1.

Substrate in data set [5]: C[C@@H](O)[C@H]1C(=O)N2C(C(=O)O)=C(SCCNC=N)C[C@H]12
Described as §1.

Substrate in data set [6]: C[C@@H](O)[C@H]1C(=O)N2C(C(=O)O)=C(S[C@@H]3CN[C@H](C(=O)N(C)C)C3)[C@H](C)[C@H]12
The description is as §1.

Substrate in data set [7]: C[C@@H](O)[C@H]1C(=O)N2C(C(=O)O)=C(S[C@@H]3CN[C@H](CNS(N)(=O)=O)C3)[C@H](C)[C@H]12
The data set is described as §1.

Substrate in data set [8]: O=C(Cc1cccs1)N[C@@H]1C(=O)N2C(C(=O)[O-])=C(C[n+]3ccccc3)CS[C@H]12
Described as §1.

Substrate in data set [9]: CC(C)(O/N=C(\C(=O)N[C@@H]1C(=O)N2C(C(=O)[O-])=C(C[n+]3ccccc3)CS[C@H]12)c1csc(N)n1)C(=O)O
Put plainly: (§2) Activity of Klebsiella pneumoniae AH24-270 CTX-M-71 beta-lactamase.

Substrate in data set [10]: CC1(C)S[C@@H]2[C@H](NC(=O)Cc3ccccc3)C(=O)N2[C@H]1C(=O)O
The description is as §2.

Substrate in data set [11]: CC1(C)S[C@@H]2[C@H](NC(=O)[C@H](N)c3ccc(O)cc3)C(=O)N2[C@H]1C(=O)O
The description is as §2.

Substrate in data set [12]: CCN1CCN(C(=O)N[C@@H](C(=O)N[C@@H]2C(=O)N3[C@@H]2SC(C)(C)[C@@H]3C(=O)O)c2ccccc2)C(=O)C1=O
The description is as §2.

Substrate in data set [13]: CO/N=C(\C(=O)N[C@@H]1C(=O)N2C(C(=O)O)=C(COC(C)=O)CS[C@H]12)c1csc(N)n1
The data set is described as §2.

Substrate in data set [14]: CO/N=C(\C(=O)N[C@@H]1C(=O)N2C(C(=O)O)=C(COC(N)=O)CS[C@H]12)c1ccco1
The description is as §2.

Substrate in data set [15]: C[C@@H](O)[C@H]1C(=O)N2C(C(=O)O)=C(SCCNC=N)C[C@H]12
The description is as §2.

Substrate in data set [16]: C[C@@H](O)[C@H]1C(=O)N2C(C(=O)O)=C(S[C@@H]3CN[C@H](C(=O)N(C)C)C3)[C@H](C)[C@H]12
The data set is described as §2.

Substrate in data set [17]: C[C@@H](O)[C@H]1C(=O)N2C(C(=O)O)=C(S[C@@H]3CN[C@H](CNS(N)(=O)=O)C3)[C@H](C)[C@H]12
The description is as §2.

Substrate in data set [18]: C[C@@H](O)[C@H]1C(=O)N2C(C(=O)O)=C([C@H]3CCCO3)S[C@H]12
The description is as §2.

Substrate in data set [19]: C[C@H]1[C@H](NC(=O)/C(=N\OC(C)(C)C(=O)O)c2csc(N)n2)C(=O)N1S(=O)(=O)O
The data set is described as §2.

Substrate in data set [20]: O=C(Cc1cccs1)N[C@@H]1C(=O)N2C(C(=O)[O-])=C(C[n+]3ccccc3)CS[C@H]12
The description is as §2.

B1: Beta-lactamase AH27 CTX-M-15 (Klebsiella pneumoniae), Q2PUH3 (protein)
chain: MVKKSLRQFTLMATATVTLLLGSVPLYAQTADVQQKLAELERQSGGRLGVALINTADNSQILYRADERFAMCSTSKVMAAAAVLKKSESEPNLLNQRVEIKKSDLVNYNPIAEKHVNGTMSLAELSAAALQYSDNVAMNKLIAHVGGPASVTAFARQLGDETFRLDRTEPTLNTAIPGDPRDTTSPRAMAQTLRNLTLGKALGDSQRAQLVTWMKGNTTGAASIQAGLPASWVVGDKTGSGGYGTTNDIAVIWPKDRAPLILVTYFTQPQPKAESRRDVLASAAKIVTDGL
The term Km denotes the substrate concentration at which the rate is half of its maximum. The kcat is the maximal rate divided by the concentration of active sites. Take B1: the Km was determined as 236 µM in [1]; 8.7 µM in [2]; 26 µM in data set [3]; 180 µM in data set [4]; 39 µM in data set [8]. Also, the kcat in [1] is 4.4 s⁻¹; in [2], 47 s⁻¹; in data set [3] it was 176 s⁻¹; in data set [4] it was 45 s⁻¹; in data set [5], < 0.17 s⁻¹; in [6], < 0.004 s⁻¹. The kcat in data set [7] was < 0.002 s⁻¹; in data set [8] it was 188 s⁻¹.

B2: Extended spectrum beta-lactamase CTX-M-71 (Klebsiella pneumoniae), C8YUV9 (protein)
chain: MVKKSLRQFTLMATATVTLLLGSVPLYAQTADVQQKLAELERQSGGRLGVALINTADNSQILYRADERFAMCSTSKVMAAAAVLKKSESEPNLLNQRVEIKKSDLVNYNPIAEKHVNGTMSLAELSAAALQYSDNVAMNKLIAHVGGPASVTAFARQLGDETFRLDRTEPTLNTAIPGDPRDTTSPRAMAQTLRNLTLGKALGDSQRAQLVTWMKGNTTGAASIQAGLPASWVVGDKTGSCGYGTTNDIAVIWPKDRAPLILVTYFTQPQPKAESRRDVLASAAKIVTDGL
On to B2, for which the Km in data set [9] was determined as 180 µM; in [10], 4.9 µM; in [11], 5.2 µM; in [12], 3.2 µM; in [13], 130 µM; in [14], 85 µM. Further, the values for the Km in data set [19] and in data set [20] were 10 µM and 18 µM, respectively. Moreover, the kcat in data set [9] was determined as 0.69 s⁻¹; in data set [10], 58 s⁻¹; in data set [11], 49 s⁻¹; in data set [12], 27 s⁻¹; in data set [13] it was 65 s⁻¹; in data set [14] it was 8.8 s⁻¹. The kcat in [15] is < 0.07 s⁻¹; in data set [16], < 0.07 s⁻¹; in data set [17], < 0.05 s⁻¹; in data set [18], < 0.46 s⁻¹; in data set [19], 0.84 s⁻¹; in [20] it was 68 s⁻¹.
